Columns and labels:
[1] = flow cytometry with anti-PilA antiserum; settings: glycan lost; control: wild type NEM316
[2] = anti-PilA western, cell-wall extracts, stationary phase; settings: glycan lost; control: wild type NEM316
[3] = anti-PilA western, membrane extracts, exponential phase; settings: glycan lost; control: wild type NEM316
[4] = anti-PilA western, cell-wall extracts, exponential phase; settings: glycan lost; control: wild type NEM316
[5] = anti-PilA western, supernatants of nisin-induced secreted PilA; settings: glycan lost; control: wild-type PilAΔCWA

B1: PilA (Gbs1478), PI-2a pilus tip adhesin: N427Q (protein)
parent chain: MRKYQKFSKILTLSLFCLSQIPLNTNVLGESTVPENGAKGKLVVKKTDDQNKPLSKATFVLKTTAHPESKIEKVTAELTGEATFDNLIPGDYTLSEETAPEGYKKTNQTWQVKVESNGKTTIQNSGDKNSTIGQNHEELDKQYPPTGIYEDTKESYKLEHVKGSVPNGKSEAKAVNPYSSEGEHIREIPEGTLSKRISEVGDLAHNKYKIELTVSGKTIVKPVDKQKPLDVVFVLDNSNSMNNDGPNFQRHNKAKKAAEALGTAVKDILGANSDNRVALVTYGSDIFDGRSVDVVKGFKEDDKYYGLQTKFTIQTENYSHKQLTNNAEEIIKRIPTEAPRAKWGSTTNGLTPEQQKQYYLSKVGETFTMKAFMEADDILSQVDRNSQKIIVHITDGVPTRSYAINNFKLGASYESQFEQMKKNGYLNKSNFLLTDKPEDIKGNGESYFLFPLDSYQTQIISGNLQKLHYLDLNLNYPKGTIYRNGPVREHGTPTKLYINSLKQKNYDIFNFGIDISAFRQVYNEDYKKNQDGTFQKLKEEAFELSDGEITELMKSFSSKPEYYTPIVTSSDASNNEILSKIQQQFEKVLTKENSIVNGTIEDPMGDKINLQLGNGQTLQPSDYTLQGNDGSIMKDSIATGGPNNDGGILKGVKLEYIKNKLYVRGLNLGEGQKVTLTYDVKLDDSFISNKFYDTNGRTTLNPKSEDPNTLRDFPIPKIRDVREYPTITIKNEKKLGEIEFTKVDKDNNKLLLKGATFELQEFNEDYKLYLPIKNNNSKVVTGENGKISYKDLKDGKYQLIEAVSPKDYQKITNKPILTFEVVKGSIQNIIAVNKQISEYHEEGDKHLITNTHIPPKGIIPMTGGKGILSFILIGGSMMSIAGGIYIWKRYKKSSDISREKD
no change: expression_or_secretion [1] | stability_or_folding [2] | expression_or_secretion [3] | expression_or_secretion [4] | stability_or_folding [5]

B2: PilA (Gbs1478), PI-2a pilus tip adhesin: N597Q (protein)
parent chain: B1 parent chain
no change: expression_or_secretion [1] | stability_or_folding [2] | expression_or_secretion [3] | expression_or_secretion [4] | stability_or_folding [5]

B3: PilA (Gbs1478), PI-2a pilus tip adhesin: N427Q-N597Q (protein)
parent chain: B1 parent chain
no change: expression_or_secretion [1] | expression_or_secretion [3] | expression_or_secretion [4]

From publication PMC4583379
